Laboratory results taken from the RNAGym collection of RNA variant scans (doi:10.7554/elife.80360).

B1: HDV Ribozyme (parent)
chain: GGCCGGCAUGGUCCCAGCCUCCUCGCUGGCGCCGGCUGGGCAACAUUCCGAGGGGACCGUCCCCUCGGUAAUGGCGAAUGGGACCCA

Variants of: B1
Assay: self-cleavage, relative activity (ratio to wild type); higher = more cleavage; co-transcriptional
With GGCCGGCAUGGUUCCAGCGUCCUCGCUGGCGCCGGCUGGGCAACAUUCCGAGGGGACCGUCCCCUCGGUAAUGGCGAAUGGGACCCA the self-cleavage was 0.138.
Work on GGCCGGCAUGGUUCCAGCCUCCUCGCUGGCGCCGGCUGGGCAACAUUCCGAGGGGACCGUCCCCUCGGUAAUGGCGACUGGGACCCA yielded a self-cleavage of 0.119.
GGCCGGCAUGGUUCCAGCCUCCUCGCUGGCGCGGGCUGGGCAACAUUCCGAGGGGACCGUCCCCUCGGUAAUGGCGAAUGGGACCCA showed a self-cleavage of 0.252.
Work on GGCCGGCAUGGUUCCAGCCUCCUCGCUGGCGCUGGCUGGGCAACAUUCCGAGGGGACCGUCCCCUCGGUAAUGGCGAAUGGGACCCA yielded a self-cleavage of 0.397.
For GGCCGGCAUGGUUCCAGCCUCCUCGUUGGCGCCGGCUGGGCAACAUUCCGAGGGGACCGUCCCCUCGGUAAUGGCGAAUGGGACCCA, the self-cleavage was 1.07.
Variant GGCCGGCAUGGUUCCAGCCUCCUCGGUGGCGCCGGCUGGGCAACAUUCCGAGGGGACCGUCCCCUCGGUAAUGGCGAAUGGGACCCA has a self-cleavage of 0.831.
GGCCGGCAUGGUUCCAGCCUCCUCGAUGGCGCCGGCUGGGCAACAUUCCGAGGGGACCGUCCCCUCGGUAAUGGCGAAUGGGACCCA gave a self-cleavage of 1.23.
Work on GGCCGGCAUGGUUCCAGCCUCCUCGCUGGCGCCGGCUGGGCAACAUUCCGAGGGGACCGUCCCCUCGGUAAUGGCGUAUGGGACCCA yielded a self-cleavage of 0.155.
GGCCGGCAUGGUUCCAGCCUCCUCGCUGGCGCCGGCUGGGCAACAUUCCGAGGGGACCGUCCCCUCGGUAAUGGCGGAUGGGACCCA gave a self-cleavage of 0.399.
GGCCGGCAUGGUUCCAGCCUCUUCGCUGGCGCCGGCUGGGCAACAUUCCGAGGGGACCGUCCCCUCGGUAAUGGCGAAUGGGACCCA showed a self-cleavage of 0.193.
In the case of GGCCGGCAUGGUUCCAGCCUCCUCGCUGGCGCCGGCUGGGCAACAUUCCGGGGGGACCGUCCCCUCGGUAAUGGCGAAUGGGACCCA, the self-cleavage is reported as 0.89.
Variant GGCCGGCAUGGUUCCAGCCUCCUCGCUGGCGCCGGCUGGGCAACAUUCCGCGGGGACCGUCCCCUCGGUAAUGGCGAAUGGGACCCA has a self-cleavage of 0.997.
Variant GGCCGGCAUGGUUCCAGCCUCCUCGCUGGCGCCGGCUGGGCAACGUUCCGAGGGGACCGUCCCCUCGGUAAUGGCGAAUGGGACCCA has a self-cleavage of 0.465.
GGCCGGCAUGGUUCCAGCCUGCUCGCUGGCGCCGGCUGGGCAACAUUCCGAGGGGACCGUCCCCUCGGUAAUGGCGAAUGGGACCCA showed a self-cleavage of 0.115.
Variant GGCCGGCAUGGUUCCAGCCUACUCGCUGGCGCCGGCUGGGCAACAUUCCGAGGGGACCGUCCCCUCGGUAAUGGCGAAUGGGACCCA has a self-cleavage of 0.192.
Work on GGCCGGCAUGGUUCCAGACUCCUCGCUGGCGCCGGCUGGGCAACAUUCCGAGGGGACCGUCCCCUCGGUAAUGGCGAAUGGGACCCA yielded a self-cleavage of 0.0652.
GGCCGGCAUGGUUCCAGCCUCCUCGCUGGCGCCGGCUGGGCAACAUUCCGAGGGGACCGUCCCCUCGGUAAUGGCGAAUGGGCCCCA gave a self-cleavage of 0.344.
Work on GGCCGGCAUGGUUCCAGCCUCCUGGCUGGCGCCGGCUGGGCAACAUUCCGAGGGGACCGUCCCCUCGGUAAUGGCGAAUGGGACCCA yielded a self-cleavage of 0.0615.
With GGCCGGCAUGGUUCCAGCCUCCUAGCUGGCGCCGGCUGGGCAACAUUCCGAGGGGACCGUCCCCUCGGUAAUGGCGAAUGGGACCCA the self-cleavage was 0.381.
GGCCGGCAUGGUUCCAGCCUCCUCGCUGGCGCCGGCUGGGCAACAUUCCGAGGGGACCGUCCCCUCGGUCAUGGCGAAUGGGACCCA showed a self-cleavage of 0.453.
GGCCGGCAUGGUUCCAGCCUCCUCGCUGGCGCCGGCUGGGCAACAUUCCGAGGGGACCGUCCCCUCGGUUAUGGCGAAUGGGACCCA gave a self-cleavage of 0.342.
GGCCGGCAUGGUUCCAGCCUCCUCGCUGGCGCCGGCUGGGCAGCAUUCCGAGGGGACCGUCCCCUCGGUAAUGGCGAAUGGGACCCA showed a self-cleavage of 0.525.
With GGCCGGCAUGGUUCCAGCCUCCUCGCUGGCGCCGGCUGGGCAACAUUCCGAGGGGACCGUCCCCUCGGUAAUGGCGAAUGGGACCCU the self-cleavage was 0.819.
With GGCCGGCAUGGUUCCAGCCUCCUCGCUGGCGCCGGCUGGGCAACAUUCCGAGGGGACCGUCCCCUCGGUAAUGGCGAAUGGGACCCG the self-cleavage was 0.634.
GGCCGGCAUGGUUCCAGCCUCCUCGCUGGCGCCGGCUGGGCAACAUUCCGAGGGGACCGUCCCCUCGGUAAUGGCGAAUGGGACCCC showed a self-cleavage of 0.647.
GGCCGGCAUGGUUCUAGCCUCCUCGCUGGCGCCGGCUGGGCAACAUUCCGAGGGGACCGUCCCCUCGGUAAUGGCGAAUGGGACCCA gave a self-cleavage of 0.733.
GGCCGGCAUGGUUCGAGCCUCCUCGCUGGCGCCGGCUGGGCAACAUUCCGAGGGGACCGUCCCCUCGGUAAUGGCGAAUGGGACCCA showed a self-cleavage of 0.356.
With GGCCGGCAUGGUUCCAGCCUCCUCGCUGGCGCCGGCUGGGCAACAUUCCGAGGGGUCCGUCCCCUCGGUAAUGGCGAAUGGGACCCA the self-cleavage was 0.554.
Work on GGCCGGCAUGGUUCCAGCCUCCUCGCUGGCGCCGGCUGGGCAACAUUCCGAGGGGGCCGUCCCCUCGGUAAUGGCGAAUGGGACCCA yielded a self-cleavage of 0.573.
With GGCCGGCAUGGUUUCAGCCUCCUCGCUGGCGCCGGCUGGGCAACAUUCCGAGGGGACCGUCCCCUCGGUAAUGGCGAAUGGGACCCA the self-cleavage was 0.308.
GGCCGGCAUGGUUCCAGCCUCCUCGCUGGCGCCGGCUGGGCAACAUUCCGAGGGGACCGUCCCCUCGGUAGUGGCGAAUGGGACCCA gave a self-cleavage of 0.429.
Work on GGCCGGCAUGGUUCCAGCCUCCUCGCUGGCGCCGGCUGGGCAACAUUCCGAGGGGACCGUCCCCUCGGUAUUGGCGAAUGGGACCCA yielded a self-cleavage of 0.494.
